test: soluble on expression in E. coli; label from the status in PepcDB or PDB records

Soluble on expression in E. coli, soluble:
MRVEIIFLGCGGGRWATITQKKATGGFRIHTNELRMHVDPGPGAIVRLNELKISPWRTNALFISHCHPDHYTDGEIIVEAITQGMTKKRGVFLGSLSVVEGFGEYEYVVSKYHQSKLEEVRVLYPGDSAELYDTTIKATHTKHGDPFGIGFRLSTIYGDIGYTSDTEFIPQLIEDFDGVRILIANIVRKKNERIKGHLCSNDAIDLINSMNKKPELLIMNHMGVKMTNPQIEAEYISQNTGIEVIPARLGLKVELLNGKYKYQLIKLEHHHHHH
MAQRYKRMSSTDINEYMPENLAKAIANPLFPALDSLLRAGRHVSSDDLDNHAFLSDFEPDLALFYQRYHTELVRAPEGFFYLRPRSTSLINRSVLSELDMLVGKVLCFLYLSPERLAHEGIFTNQELYDELLTLVEEKKLMKLVTNRASGSDLDREKLFEKVRTSLRRLRRLGMVITIGDTGKFRITEAVFRFGADVRLGGDVREAQLRLIRDGEAVVHTPEPSQQSLLENPTAEYDEEQTEWEDEALEHHHHHH
MDKPILKDSMKLFEALGTIKSRSMFGGFGLFADETMFALVVNNQLHIRADQQTSSDFETQGLKPYVYKKRGFPVVTKYYAISSELWESSDRLIEVAKKSLENAKLEKEQQASTKPNRLKDLPNLRLATERMLKKAGIDSVAQLEEEGALSAYKAIRDTHSTTVSLELLWALEGAINGTHWSVVPQSRREELMNGLS
MNKLHKGWFTEFSPDDLEKMNGASDEEPTKVLKSDGQEMGGAWPGQAFSLQVKKVLFHEKSKYQDVLVFESTTYGNVLVLDGIVQATERDEFSYQEMLAHLPMFAHPDPKRVLIIGGGDGGILREVLKHESVEKVTMCEIDEMVIDVAKKFLPGMSCGFSHPKLDLFCGDGFEFLKNHKNEFDVIITDSSDPVGPAESLFGQSYYELLRDALKEDGILSSQGESVWLHLPLIAHLVAFNRKIFPAVTYAQSIVSTYPSGSMGYLICAKNANRDVTTPARTLTAEQIKALNLRFYNSEVHKAAFVLPQFVKNALE
MRGSHHHHHHGSEYPERPVNMVVPFAAGGPTDNVARSLAESMRPTLGETVVVENKGGAGGTIGTTQVARAQPDGYSILLMHAGFSTAPSLYKNPGYEPYTSFEPIGLVVDVPMTIIARGDFPPNNIKELAEYVKKNADKISLANAGIGAASHLCGTMLVEALGVNLLTIPYKGTAPAMNDLLGKQVDLMCDQTTNTTQQITSGKVKAYAVTSLKRVPTLPDLPTMDESGYKGFEVGIWHGMWAPKGTPKPVVDKLVKSLQAGLADPKFQERMKQLGAEVLTNEANPEALQAKVKQQVPQWAELFKKAGVEKQ
MAHHHHHHMATTSSPAASETAVRTVWFDAIDATAAMISTDPLQPAAEYTADSYLPPLSLAGDQADFFAQLRELDRGFIEAAPSLFLPQMTLEEACHAKPSFYQTFLGEREITETTFQPLLLKQRDEAEQEADGSAMNGRHGARRRRQEAPVLPRGTAPLYGGFLGQEAMSPSTAVQRKPDFMPIILVPSAATAPLQLMNIKQFLEHGAYVDPATLYVDRETGVVNIRDSKPRSVIVKPGSFHDPHKYHVAFRQFRVVDDQDEVDDWSHVCGCIVEGKLWQLKGWYPHEQPQSRDPSRLFSRIRAFLAYFEEDKVPPQCREWNVQSLALTRNLLKDQVHIALASKFWEQLYTFLDEHPMFSRYTIPLTDERL
MKIAIINMGNNVINFKTVPSSETIYLFKVISEMGLNVDIISLKNGVYTKSFDEVDVNDYDRLIVVNSSINFFGGKPNLAILSAQKFMAKYKSKIYYLFTDIRLPFSQSWPNVKNRPWAYLYTEEELLIKSPIKVISQGINLDIAKAAHKKVDNVIEFEYFPIEQYKIHMNDFQLSKPTKKTLDVIYGGSFRSGQRESKMVEFLFDTGLNIEFFGNAREKQFKNPKYPWTKAPVFTGKIPMNMVSEKNSQAIAALIIGDKNYNDNFITLRVWETMASDAVMLIDEEFDTKHRIINDARFYVNNRAELIDRVNELKHSDVLRKEMLSIQHDILNKTRAKKAEWQDAFKKAIDL

Soluble on expression in E. coli, not soluble:
MFSRGASTMQSRELREQLLGCVKSRKSLHVTGPPGSGKSTFVSRLAEALRVKGCRLGGFMAPEVRRGGRRVAFKIVDIASGEEGYLAVADESLAAPGGRRARHGRYLVLVDEAWRVMSHAIRNAFEHADIIIVDEIGPMELAVPGFREALTEILDSGKPLVTVFHRRLRTLDPGLYKLLERGCIVWLDERNRGPLIRLVSEIASALSNEACGNSLEHHHHHH
MARVVVLGAGIGGLPTAYELKHRLGDRHEVILVSDVDRFTFIPGLVAVALGHNSLERLQVPLETVSRRHGLRWVQGKVQRLAPQEKKIYLPEQALDYDYLVIATGAELAVDLIPGLGIHSHSVCTPAHAVAAQRAWQEFLKEPRDLVVGAAPGASCFGPAYEFLFLAEHALRHHGLRDRVKITFITPEPYVGHLGIGGLANSDQLTRNLIEKRGIETITNAEITAIEPHRILLRDRPVIPFGYSMILPPFRGVPFVRASGLGNEKGFLPLLPTLQHPNYPEIYGVGISVHLPPLEVTPVPVGVPKTGQMTEEMAIAASHNIAVALGELVADPVVPTLDALCFADFGNTGIAYIAAPVIPEPPGENRRLACALQGLWVSWVKAAFERYFLLKMRWGLGVPWFEQWGLRLFFGLSLVRPLQPTVFPEQQPIMKVLEHHHHHH
MPEAVVLINSASDANSIEQTALPVPMALVHRTRVQDAFPVSWIPKGGDRFSVTAVLPHDHPFFAPVHGDRHDPLLIAETLRQAAMLVFHAGYGVPVGYHFLMATLDYTCHLDHLGVSGEVAELEVEVACSQLKFRGGQPVQGQVDWAVRRAGRLAATGTATTRFTSPQVYRRMRGDFATPTASVPGTAPVPAARAGRTRDEDVVLSASSQQDTWRLRVDTSHPTLFQRPNDHVPGMLLLEAARQAACLVTGPAPFVPSIGGTRFVRYAEFDSPCWIQATVRPGPAAGLTTVRVTGHQDGSLVFLTTLSGPAFSGAAALEHHHHHH
TPLLKTEFFPQSDNGYIQIQAEYPVGTGVNLPRAFALRMIDSWEKEIPEIDRTSFSVGQAEASSMFAAMQDNGTNIITFHIGLTGRNERKRSMNEVADQIRTMLDDYPEIHSYKVTPGGSGGGMGGQPTVNLDIYGYDFNKTGDLAERFSRLMKEDARCAQATISRKDYVPEYQFVFDRTKLAENGLNSTTAAMFLRNRVNGRVASTYREEGDEYDIRVRLAPEFRRSLRDLENILIYTPQGKGVRLGELGKIEELYTPPTIERKDRQRVVIVASTAVKGAALSDLVEVAKEKIAQLEIPDGIDYKISGTYEDQQKTFAD
RIIEINPEEGWVRVEAGVIKDQLNQFLKPYGYFFAPELSTSNRATLGGMINTDASGQGSLVYGKTSDHVLGLRAVLMGGDILDTQAVPVALAETLGNTPSTVGRIYNTVYQRCKAQRDLIIDKFPKLNRFLTGYDLRHVFNDEMSEFDLTRILTGSEGTLAFITEARLDITRLP
MGSDKIHHHHHHMTVRQDIHSSGIPVLCLSCAARLRGVCAALDPNHLVGLAKTSSRHKLEPGVELIADAEAVDSYSNLLSGVVKLTKCLSDGRQQIVGLRFAPDFLGRPFKVKSTINVEAATSVSLCSFPKAAVERIMKESPGLEHRLLKQTLDELDEALEWMVTLGRKTAPEKVASFLLMIARNMDSSIDPAAGSACFDLPLTRADISDFLGLTNETVSRQLTRLRADGVIRIENKRHVTVDSMSRLEQRCGGRGARQPAFE
DFEDVHIAEARVDVPSTWRDQIVNTNAVATETHPLKCAEVETQTGSKDNQGTQTDDAGGGRPPSPSKVQASGVADFMAKVEGMVAGELVKATEEHEVLEPFTRAADDEQEPATCIHYLSPFQQDAA
MGSDKIHHHHHHMIMQLDCALYQHPKLITVFGGSGFVGRHVVEALTKRGYRVRIAVRSPQKAYYMLQIGEVGQTQMLRTDIKCRASVARALLGSDGAVFLPGSLAQANQPNFQKTQIEGAQNVSELTAEAGIPLIYMSALVANKNASFLYARVKSMSEEIIHNEHPQAIIMRPSIIFGPEDCFFNNLANLSCFLPIIPLFGGGQSKLQPVYVGDVAEFIVRALEGQVISGKSYDLGGPQIITFQNVLEYILKIIHRKKTILSMPLSAGLFIGGLLGTIGKLPLAPTLVTASQIRFLQIDNIVSQEAIENGYTLEGVGITPKAMAALLPSYLWRFRPHGQFSRNLPA
